Assay: label from the status in PepcDB records

Sequence | protein production
MFSLKNYSPSPLLSAKAKEYLVFTLVTLTIVVAGTLLFLFDPASSKLFPPSPFRSLTGLYCPGCGTLRALHQLLHGNLVGAFGLNPLMMISLPFMIYSYVAYGLKTINGRTLLVWFVPPKVIWFILQAILAYWVARNIPFAPFSWLAP | failed
MFVSHGAIVKSAPKHWNGSKCPIRMQVRVPDPDRRSLLRAGAHIILGGLLATVIPGTSPSIAKIREKPTDKGEEAPKIDDEKELDKYVSGLKYEEELYENPDPAEKEVYRTPRVEREPEYKKKEDEILEKESKVLKEEAREAARESEVLRQEFEKR | not failed
MGRKPIKAGAIPRFRVRPQKSGVVYYYYDHGGKPRKETPLGRDYGLAIKRWAELEHAQITPAIAVTFRHVAERYRAEVIPTKAYNTQRMHHVYLNYLLQFFDDPPAPFESIKPVNIRQYLDWRPFKVSANREVALFSHLWNWARSKGITDLPNPCGGIRRNKERGRDVYIDDTTYRAVYQAADQTLRDAMDLAYLTGQRVSDVVSMDERHIVNGALEICQAKTGVKLAIAITGELAVLIKRIFDRKRGMKLRSTRLIVDEKGLGLNWKKLAYRFRKVRAAAGIAKEVFQFRDLRAKAATDKADLAGDIRQAQAQLGHTSVVMTEHYVRKRKGAKVTPTR | failed
SLKKIVESTTFPRTKQSITEDLKALGLKKGMTVLVHSSLSSIGWVNGGAVAVIQALIDVVTEEGTIVMPSQSVELSDPKEWGNPPVPEEWWDIIRESMPAYNSNYTPTTRGMGQIVELFRSYPEVKRSNHPNYSFVAWGKHKNKILNQHPLEFGLGEQSPLGKLYIRESYVLLLGADFDSSTCFHLAEYRIPYQKIINRGAPIIVEGKRVWKEYKELEFREELFQEVGQAFEAEHNMKVGKVGSANCRLFSLTEAVDFAEKWFINNDSKNIKK | not failed
MPTVFIFLTAVYAGLGAFAWHCQQQGRGRDYPWKTELPVLGAALTVHGAALLMPVIQDKIIIMGFGYSGSLIVWMMLFIYFAGSFFYPLRGVQLLLYPCAALMLLSGLVFPGKFSGYEITDFPFMLHIGTSLLAYGLFGIATLLSVLSLLLHRSLHRRNFSKLAGFLPSLLSLEKLMFQAMWAGFILLTYSVVSGTFFAEAVFGKPMTFTHKTVFGILSWLIYGGLLLKHSMTAWRGKKAAVWTIIGFVSLMIAYMGSKFVLEIILKR | failed
MAVKIQTPAGTIEITNDVIATVVGGAATDIYGIVGMASKNQIKDNLNDILRRENYSRGVVVRQEDNGIAVDVYTIVSYGTKISEVSRNVQEKVKYNLETLLGVTANSVNVFVQGVRVLPDLEHHHHHH | not failed
MAHLVITIGCEYGAKGNQIGKKVAKDLGIKFYDRDTVDEIIKEVGIPKDIMEKVEEGITIAGKGAEGDVRGSFSKYADLTERAIHVQKTIIRKLSDRESCVIIGRSADYILKEHKPILRIFIYSPDEVRIENVMKSHNLSEDDAKLFITEKDKRYHKRHMALTGSNRGDRHNRDMLIDSSLLGVDGTAELIESLARKVVENESKTEAGGDK | not failed
MSTDNLLQPKLIEATLGDYPVIQNMARFYVYDMSRYCGFISEEWTCPPDGLYESYDFKIYFTDPERKAFLIQIDNELAGFALLNKFGIQAVDWSMGEFFILAKFQGKGIGQSVAHQLWRTHPGEWEISVIPENIPALSFWRQAVMTYTL | not failed
VITVGNYKGGAGKTTNVVLLAYKLAKKGLKVCVLDLDPQSNATKSLLLTKSSLYQDEVVTIEKTLMTGISEKNLDGLEVKIMDNLYLLPSYIDFEDFPKYLYKNTSNQREEDYYLKNIFTPLQGKYDIVLIDVPPMSKAVTRNAVICSDYVLISLQTHERSLSGAESYVEELNKLHNEYDLDLEVVGVLPVIHKNNGSVDQYVMEVAKETFGEDNLFENVVPQMERIKRFDVNGITDKDRHDQKVLNLYDKVSDELLD | failed
MSSRLARFALSGYRIAGIAAYPFARPYLSYRAAKGKEDKRRRLERFGYASAERPRGPLVWFHAASVGETLALIPLIREIRKRDIFVLLTTGTVTSAELTRTRLGDDVIHQYVPLDIKIAVNRFLTYWAPDAAITAESEIWPVTMMELERRHIPQIRVNARLSDRSFDRWKARHDIAESLFSKLALVVAQSDLDAERFRDLGSWPVVISGNLKGDTDPPPCDEALLESYRKQVGNRKTWAAISTFDGEEKAAATVHAAIKSRNGQLTIIVPRHPERGDDVEAMLKGMNLSVARRSRNDVITPGTDIFLGDSIGEMGLYLRLTELAFVGRSLTAEGGQNPLEPAMLGCAVLSGAHVQNFREAYQKLIRAGGGRIIRDVEMLAKAVHYLLVNDNERYKMIDAGNRVIQDMRGALSSTVKALEPYINPLTVSAKLQPRSAIGSWLEHHHHHH | failed
ASPVENKEVYQCRLCNAKLSSLLEQGSHERLCRNAAVCPYCSLRFFSPELKQEHESKCEYKKLTCLECMRTFKSSFSIWRHQVEVHNQNNMAPT | not failed
MSKQLLALNIDGALLRSNGKIHQATKDAIEYVKKKGIYVTLVTNRHFRSAQKIAKSLKLDAKLITHSGAYIAEKIDAPFFEKRISDDHTFNIVQVLESYQCNIRLLHEKYSIGNKKKVNSNLLGKALIHPSDPIFYPVQFVESLSDLLMDEPVSAPVIEVYTEHDIQHDITETITKAFPAVDVIRVNDEKLNIVPKGVSKEAGLALVASELGLSMDDVVAIGHQYDDLPMIELAGLGVAMGNAVPEIKRKADWVTRSNDEQGVAYMMKEYFRMQQRKGFLDKFHMKRV | failed
MWIQVRTIDGSKTCTIEDVSRKATIEELRERVWALFDVRPECQRLFYRGKQLENGYTLFDYDVGLNDIIQLLVRPD | not failed
MTELGTVLDGKYEILKKVGQGGMSIVYLAMDNRLNKQWAVKEIKNDGSKSTATLLKSLEREANILKDVDHPVLPRIVDIINENGTIYVVMDFVEGKPLSDVLKAEGAQDQNKVIEWGRALASALDYLHSMNPPIIYRDMKPSNVMLKPDGSVKLIDFGTAKEYIVENNADTTALGTRGYAAPEQFGDSQGRGIYNTDARTDIYNLGATLYHLVTGKNPCEPPYEIKPIRQWNPTLSSGFEQIIIKCCQPSPEDRYQSCSELLYALDHYNELDNEFKAKAKRKVAVFATMAGLSILSGCCAIFGGVKKGQLKEQDYNNKIAEAEDAVDSSDYNKAFECYKAAVDIDPTASEAYIGYMDTYAYYYTDEDVATGTGTETPAEKGIKFALRNIDKVKDDVKYEIALLYFNEVPDYSAARKYFNMVGDTENFANDVKQAKYYEAICDNKINKTADFNDSKQEVFDFQQYNSDNIDDTNTYKYVNYLNIATIYVDKLSSDEELANRTIELLQEASDKLNDNATVLSKEFPEERGVNYYSGQYSAILCSVYTYLAEKESDPVEQVAYYREAINSIDSYLSGLDMNGDAVTEKTKNVYAEYSRKKAEIYVSMGDISGDDKNYELAENVYLSAEQMLGVDDYSADLYTSHLTYLYNRYTDLYGSAPDTWDKSARNTVISVYNSGSRISMLADGKKPQWNTLIHKPVIEAIVSGTGSKTGK | failed
MQYPPRLGFGTWQAPPEAVQTAVETALMTGYRHIDCAYVYQNEEAIGRAFGKIFKDASSGIKREDVWITSKLWNYNHRPELVREQCKKTMSDLQVDYLDLFLVHWPLAFVRNDVGDLFPKDAEGRAMLEKVPLADTWRAMEQLVEEGLVKHIGVSNYTVPLLADLLNYAKIKPLVNQIEIHPWHPNDATVKFCLDNGIGVTAYSPMGGSYADPRDPSGTQKNVILECKTLKAIADAKGTSPHCVALAWHVKKWNTSMYSVIPKSQTPARIEANFKCTEVQLSDDDMDAINNIHLNKRIRFCDPAIFWKVPLFD | not failed
MLGVILLYVGMVLMSNGLHRLEGIPDKSNVVMNIFTGGLGLILNIIVIAYGACTGQGAEWFYGSATGLLFAFTYLYSAINTIFDFDQRLYGWFSLFVAINTLPAGILCLTSGYGGNAWYGIIWFLWGVLWLTAFIEINLKKNLGKFVPYLAIFEGIVTAWIPGLLMLWGKW | failed
MDLVEKVKELCLELEEENLAKAIERFITLTHGIEKTRGEAFAKASIYGFLEGILTTLKMKYSNEKIETLLNEVKTAREETEALLRKPRPPLLVDNDL | not failed
MELASPISSSFLEAFSRLSLERYSFLSIATSTIPSAAFLTTGFSSFNTSRAKLNASSMISGSLVLTTISFSTLRAETFFFSDFPFRMFLIQENIILATLIILAPRVATPSAAYSFIGSGLFSTIPINISESLVLISSGNSMKVTMAFIVSTACKTTVSSLSSNSLIRSGITSFTSSIPSSFFIASFFIMYRVPFFIKGSFSCNAFLSIDILFSLSSSTIWRAFLTLHPFKFSIYSS | failed
MFPFGPHSPGGDETAGAEEPPPLGGPAAASRPPSPAPRPASPQRGADAASPPPVAGSPRLPGGPAVSPAERAGEFAAPGALELSAATASASQAKLSPSSSPRRRSRPDWRAGGRSRQGLGAGLGGPGARLFGWLRERSLGRGLFVDPARDNFRTMTNLYGSIHPADSVYLSTRTHGAVFNLEYSPDGSVLTVACEQTEVLLFDPISSKHIKTLSEAHEDCVNNIRFLDNRLFATCSDDTTIALWDLRKLNTKVCTLHGHTSWVKNIEYDTNTRLLVTSGFDGNVIIWDTNRCTEDGCPHKKFFHTRFLMRMRLTPDCSKMLISTSSGYLLILHELDLTKSLEVGSYPILRARRTTSSSDLTTTSSSSGSRVSGSPCHHNDSNSTEKHMSRASQREGVSPRNSLEVLTPEVPGERDRGNCITSLQLHPKGWATLLRCSSNTDDQEWTCVYEFQEGAPVRPVSPRCSLRLTHYIEEANVGRGYIKELCFSPDGRMISSPHGYGIRLLGFDKQCSELVDCLPKEASPLRVIRSLYSHNDVVLTTKFSPTHCQIASGCLSGRVSLYQPKF | failed
MTEDQVEILEYNFNKVNKHPDPTTLCLIAAEAGLTEEQTQKWFKQRLAEWRRSEGLPSECRSVTD | not failed
MKVAVLDFGKTNSKLFVFGQDGGILDERRTQPKWTHQDGFSVLDEAALHDWALGAVTEAVENHGVEGVMVSGHGCTFALVDDAALTHPILDYEQEPPAEIAARIDHRIPDFAETFSPRLPLGFNYGRHMLWVQEVDPDAFAAAKSILGYPQYWSWRLGGRPVSEVSYLGCHSHLWAPRSQDFSSLVDAEGWRGQMPAFARAGAVIGERRLGSSSRPIAIHNGVHDSNAALHAYRLEHHHHHH | not failed
MLNAIKFRIYPNAQQKELISKHFGCSRVVYNYFLDYRQKQYAKGIKETYFTMQKVLTQIKRQEKYHYLNECNSQSLQMALRQLVSAYDNFFSKRARYPKFKSKKNAKQSFAIPQNIETKTETQTIALPKFKEGIKAKLHRDLPKDSVIKQAFISCIADQYFCSLSYETKEPIPKPTIIKKAVGLDMGLRTLIVTSDKIGYPHIRFYQKLEKKLTKAQRRLSKKVKDSNNRKKQAKKVSRLHLACSNTRDDYLHKISNEITNQYDLIGVETLNVKALMRTYHSKSLANASWGKFLTMLEYKAQRKGKTLLSIDRFFPSSQLCSYCGVNTGKKHESITKFTCPHCQTTHHRDYNASVNIRNYALGMLDDRHKVKTDKARVGIIRSDYTHHTNECVKACGASSNGVSSKYGNILDLASYGAMKQEKAQSL | failed
MASLVAYDDSDPESEADPARSGDAAGQMSDVSGISRPEVEFASSTGVTKEGAQHTGNSPYEDPGKQRLPLARLWRSDPGSCPSQRLQWPSKEPDSTFPTSEPPGPSLWMNRAPVGHVPLAAACFKPLKPAWDAFTPSHTHSKLESTAGNASSSQRKRGEACVLPYIPKRLRQLQVLNPEATGGRDVEPPGSPAGCAPAPLCVAPTVSEFIQPYLNSQYRETTVPKKVLFHLRGHRGPVNSIQWCPVFSKSHMLLSASMDKTFKVWNAVDSGHCLQTYSVHSEAVRAARWSPCGRRILSGGFDFALHLTDLETGTQVFSGHSDFRVTTLKFHPKDHNVFLCGGFSSEIKAWDMRTGKVVKGYKATIQQTLDILFLQEGSEFLSSTDASTRDSADRTIIAWDFRTAAKISNQIFHERYTCPSLALHPREPVFLAQTNGNYLALFSSVWPYRMSRRRRYEGHKVEGYAVGCECSPCGDLLVTGSADGRVLMFSFRTASRACTLQGHTQACLGTTYHPVLPSVLGTCSWGGDIKIWH | failed
MARREICNKGVVAGVQYSHSHRQSKRTWAPNIKKVKAIVKGTPKTVHVCTRCLRSEKFKELYKKSLAKMQFNNCIFILHKNKGLEHHHHHH | not failed
